# Reference: US20240425837A1 (Novo Nordisk, published 2024)
# No end group written: not given here.
# T1: FX activation peptide 12-mer FNQTQPERGDNN (SEQ ID NO:730) (human)
# T1 peptide: FNQTQPERGDNN-biotin
# T2: FX activation peptide 12-mer SGEAPDSITWKP (SEQ ID NO:701) (human)
# T2 peptide: SGEAPDSITWKP-biotin
# T3: FX activation peptide 12-mer TENPFDLLDFNQ (SEQ ID NO:721) (human)
# T3 peptide: TENPFDLLDFNQ-biotin
# T4: FX activation peptide 12-mer DPTENPFDLLDF (SEQ ID NO:719) (human)
# T4 peptide: DPTENPFDLLDF-biotin
# B1: Cmpd #1 (monovalent anti-FX VHH polypeptide, VHH-1.1) (VHH)
# VHH: EVQLVESGGGLVQPGGSLRLSCAASGSIGAFDAMGWYRQAPGKQRELVAGIMVSRGNTNYTDSVKGRFTISRDNAKNTVYLQMNSLKPEDTAVYYCKAVKRPGPGYLEVWGQGTLVTVSS
# notes: no protractor; FLAG-tagged in the peptide ELISA
# Tests used:
# Assay in all cases: ELISA, biotinylated 12-mer peptide on streptavidin, 2 ug/mL FLAG-tagged VHH, anti-FLAG-HRP
# [1] = target: T1, FX activation peptide 12-mer …
# Experimental: (§1) To determine whether the binding epitope of the anti-FX VHH polypeptide designated “cmpd #1” are located inside the activation peptide (AP) of human FX (SEQ ID NO:2), an ELISA assay was setup. 41 unique 12-mer peptide fragments spanning the 52 residues of the activation peptide with one amino acid spacing were immobilized in microtiter plate wells followed by incubation with the VHH polypeptide to be tested, and detection of bound ligand was performed by addition of a secondary HRP-labelled antibody.
# (§2) The peptides were C-terminally conjugated to biotin and 50 μL of 1 μg/mL peptide solution was used for immobilization in discrete wells of the microtiter plate which was pre-coated with 1 μg/mL streptavidin. Each well was washed with washing buffer (10 mM Tris, 150 mM NaCl, 2.5 mM CaCl₂, 0.05% Tween 20, pH 8.60) followed by addition of 50 μL of 2 μg/mL FLAG-tagged anti-FX VHH polypeptide or IgG antibody to be tested. After 1 hour non-bound VHH polypeptide was washed off using washing buffer.
# (§3) Bound anti-FX activation peptide ligand was detected by first binding a HRP-labelled secondary antibody (for FLAG-tagged VHH polypeptide: Anti-FLAG mAb M2-Peroxidase (HRP) (Sigma Aldrich, US) for 1 hour, and then adding 100 μL TMB-1 ELISA substrate (Kem-En-Tec Diagnostics, Denmark).
# [2] = target: T2, FX activation peptide 12-mer …
# Experimental: as §1, §2, §3
# [3] = target: T3, FX activation peptide 12-mer …
# Experimental: as §1, §2, §3
# [4] = target: T4, FX activation peptide 12-mer …
# Experimental: as §1, §2, §3
binder,measurement,setting,value
B1,ELISA signal normalized relative to the background signal,[1],1 fold of background
same,ELISA signal normalized relative to the background signal,[2],0.88 fold of background
same,ELISA signal normalized relative to the background signal,[3],4.84 fold of background
same,ELISA signal normalized relative to the background signal,[4],4.16 fold of background
